Data reported in the RNAGym collection of RNA variant scans (doi:10.1021/acssynbio.7b00057).

B1: Pistol ribozyme (parent)
chain: GGGUCGUUGUUCCAUAAUCGCGUGGAUAUGGCACGCAAGUUUCUACCGGGCACCGUAAAUGUCCGACUGGAGCCGUUCGGGCGGCUAUAAACAGACCUCAGGCCCGAAGCGUGGCGGCACCUGCCGCCGGUGGUAAAAAAGAUCGGAAGAGCACACGUCU

Variants of: B1
Experiment: aptazyme ON/OFF ratio, guanine; higher = stronger switching; co-transcriptional cleavage with and without guanine

Variant | aptazyme ON/OFF ratio
U7G U8G U10G U11C C12G C13U | 1.4
U7G U8G U10G U11C C12G C13A | 1.29
U7G U8G U11A C12U C13U | 1.15
U7G U8G U11A C12U C13G | 1.36
U7G U8G U11A C12U C13A | 1.56
U7G U8G U10G U11G C12A C13A | 1.25
U7G U8G U10G U11G C12A C13G | 1.03
U7G U8G U10G U11G C12A C13U | 1.33
U7G U8G U10C U11A C12G C13A | 1.17
U7G U8G U10C U11A C12G C13U | 1.27
U7G U8G U10C U11A C12G C13G | 1.23
U7G U8G U10G U11C C13G | 1.29
U7G U8G U10G U11C C13A | 1.02
U7G U8G U10G U11C C13U | 1.15
U7G U8G U10C U11G C12U C13A | 1.16
U7G U8G U10C U11G C12U C13U | 1.41
U7G U8G U10C U11G C12U C13G | 1.52
U7G U8G U10C C12U | 1.52
U7G U8G U10C C12G | 1.09
U7G U8G U10C C12A | 1.49
U7G U8G U10C | 1.38

Variant | aptazyme ON/OFF ratio
U7G U8G U10G | 1.37
U7G U8G U10A | 2.24
U7G U8G U10A U11C C12A C13A | 1.34
U7G U8G U10A U11C C12A C13G | 1.23
U7G U8G U10A U11C C12A C13U | 1.47
U7G U8G U10C U11A C12A | 1.34
U7G U8G U10C U11A C12G | 1.21
U7G U8G U10C U11A C12U | 1.36
U7G U8G U10C U11C C13U | 1.12
U7G U8G U10C U11C C13A | 1.07
U7G U8G U10C U11C C13G | 1.07
U7G U8G U10A U11C C12A | 1.4
U7G U8G U10A U11C C12U | 1.42
U7G U8G U10A U11C C12G | 1.25
U7G U8G G9U U11G C12G C13U | 1.22
U7G U8G G9U U11G C12G C13A | 1.05
U7G U8G G9U U11G C12G C13G | 1.14
U7G U8G G9U U11G C13G | 1.19
U7G U8G G9U U11G C13U | 1.42
U7G U8G G9U U11G C13A | 1.2
U7G U8G U11C C12A C13U | 1.26

Variant | aptazyme ON/OFF ratio
U7G U8G U11C C12A C13G | 1.15
U7G U8G U11C C12A C13A | 1.42
U7G U8G U11C C12U C13U | 1.44
U7G U8G U11C C12U C13G | 1.3
U7G U8G U11C C12U C13A | 1.38
U7G U8G U10C U11G C13G | 1.21
U7G U8G U10C U11G C13U | 1.47
U7G U8G U10C U11G C13A | 1.26
U7G U10A U11A C13U | 1.11
U7G U10A U11A C13G | 1.11
U7G U10A U11A C13A | 1.14
U7G U8G U10G U11C C12U C13A | 1.12
U7G U8G U10G U11C C12U C13G | 1.15
U7G U8G U10G U11C C12U C13U | 1.36
U7G U10A U11A C12A C13G | 1.11
U7G U10A U11A C12A C13A | 1.14
U7G U10A U11A C12A C13U | 1.07
U7G U8G G9U U11A C12G | 1.29
U7G U8G G9U U11A C12A | 1.43
U7G U8G G9U U11A C12U | 1.54
U7G U8G U10A U11G C12G C13G | 1.23

Variant | aptazyme ON/OFF ratio
U7G U8G U10A U11G C12G C13U | 1.22
U7G U8G U10A U11G C12G C13A | 1.15
U7G U8G U11A C12G | 1.43
U7G U8G U11A C12A | 1.36
U7G U8G U11A C12U | 1.38
U7G U8G U10C U11G C12G | 1.43
U7G U8G U10C U11G C12U | 1.23
U7G U8G U10C U11G C12A | 1.41
U7G U8G G9U U10G U11G C12U | 1.18
U7G U8G U11G C12G C13U | 1.09
U7G U8G U11G C12G C13G | 1.21
U7G U8G U11G C12G C13A | 1.18
U7G U8G G9U U11G C12U | 1.45
U7G U8G G9U U11G C12A | 1.32
U7G U8G G9U U11G C12G | 1.41
U7G U8G U10G U11C C12A C13U | 1.46
U7G U8G U10G U11C C12A C13G | 1.3
U7G U8G U10G U11C C12A C13A | 1.53
U7G U8G U10A U11G C12U C13A | 1.23
U7G U8G U10A U11G C12U C13G | 1.36
U7G U8G U10A U11G C12U C13U | 1.22
